Where only a bound is given, the exact number is not on record here.

Experiment [1] addresses human MMP-2 (Biomol #SE-237) (human) (UniProt P08253). Put plainly: Ki,app, enzyme inhibition assay (fluorogenic peptide substrate).
The target in experiment [2] is Human MMP-9 catalytic domain (BIOMOL, SE-244) (human) (UniProt P14780). The experiment can be described thus: cell-based or functional assay.
Chain of Human MMP-9 catalytic domain (BIOMOL, SE-244) (human) (P14780 107-457 limits assumed): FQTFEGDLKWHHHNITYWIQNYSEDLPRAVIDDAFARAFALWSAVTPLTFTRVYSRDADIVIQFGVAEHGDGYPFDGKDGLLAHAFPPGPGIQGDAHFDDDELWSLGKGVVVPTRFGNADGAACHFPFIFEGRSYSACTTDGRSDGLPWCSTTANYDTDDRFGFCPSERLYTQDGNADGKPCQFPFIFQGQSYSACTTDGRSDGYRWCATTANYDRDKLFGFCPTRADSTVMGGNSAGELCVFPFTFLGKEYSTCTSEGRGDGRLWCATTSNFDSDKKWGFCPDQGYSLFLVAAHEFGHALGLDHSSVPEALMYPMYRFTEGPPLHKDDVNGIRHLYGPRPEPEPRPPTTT

Chain of human MMP-2 (Biomol #SE-237) (human) (P08253 110-452 limits assumed): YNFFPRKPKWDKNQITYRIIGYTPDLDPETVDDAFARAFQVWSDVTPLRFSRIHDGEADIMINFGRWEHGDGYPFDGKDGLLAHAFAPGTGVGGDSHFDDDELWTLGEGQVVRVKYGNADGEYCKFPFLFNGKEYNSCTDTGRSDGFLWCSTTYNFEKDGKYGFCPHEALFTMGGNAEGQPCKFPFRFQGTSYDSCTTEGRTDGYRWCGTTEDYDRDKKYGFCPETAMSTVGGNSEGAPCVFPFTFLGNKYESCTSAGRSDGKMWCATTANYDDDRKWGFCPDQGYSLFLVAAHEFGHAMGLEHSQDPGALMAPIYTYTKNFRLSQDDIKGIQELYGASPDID

In experiment [1], “Anti-hMMP-2 R&D Systems pAb # AF902 (antibody)” showed a Ki of 6 nM. With “Anti-hMMP-9 R&D Systems pAb # AB911 (antibody)”, the IC50 (enzyme inhibition) in experiment [2] was more than 500 nM.

Source of the values: patent US20110135573A1, “METALLOPROTEINASE 9 AND METALLOPROTEINASE 2 BINDING PROTEINS” (DYAX CORP., priority 2009, published 2011).
